{"source": "a protein production outcome set (Wang et al. 2014)"}
{"experiment": "label from the status in PepcDB records"}
{"sequence": "MKLSCVIVSHNMKNYIGRCIDSVRTALADIRSLVGEAEIIVVDRGSTDGTANAARTAYADVTIVDVPFDAGWATAANKGACAATGETLLFVSPEVELLSGGLPRLLEHLETNPACAIAGGAVVSTSGALLHGPARFPGLLGKLAALTGLGSRFPRTMLDWTRYGGRNLDLPLEVDSVSFDYAVVKAAAFCKLGRFDARFHTAFADTDLCRRASRTMLPRPTVAFVPQARARAQDNFVLRDEVQAFDLHGTAVVRGRVRCEMLYVWKNYCILTSLANTTLELVGQACRYAMGLLPVIGCDKTARHSAAVLKETAQAALDTQLGSQYPTTPWLEHHHHHH", "protein production": "failed"}
{"sequence": "MKLSLRYVLNQFLSTNLSIFFVLFAIVSMVFFIQLAKLTSSIEISFLDLLKLYGFMLPRILIFTLPISFFISLTLALFRLSKENESIVLFTLGFSPMILAKFFLKIASLISAFMLVVALVMIPIVFELQDNFVNYKSTQVKFNYKTGEFGQKFLDWMIFIEKQDSDKYENIIMYRPKHKADDKEQLIIAKEAHVQRKDDSFAFSLNQGKMYNFEQGQSIFSGEFDTLVVNTQFNTDNLQTKKFYEYWNDLNENPQRAREFVIYTTIALFPLASTLFALCFGLVTYRYEKGYVYLGMFGVIAIYFGLLSSFSQPPILACLGIFSLSLFVSAYCFKKMILSRY", "protein production": "failed"}
{"sequence": "MKLSNKTQALHDLIAPAVQACDVNLWGIEFIPQGKRSLLRIFIDKPVDETAEPVLNEDGETELGRGIGVQDCVRVTQQVGAILDVHDPISGEYALEVSSPGWDRPFFQLEQMSAYIGQQVALRLISAVENRRKFQAKLLLVDLENEMIQVEVDGKHVLEIDSHNIDKANLIYQD", "protein production": "failed"}
{"sequence": "MKLTDRLLKIASLVSDGKKIADIGTDHGYIPVYLLKEGKVPFAVLADVNKGPLDNAHKEVIQNNLLDKVDLRLGSGIEILEIGEVEEVIIAGMGGILISELLEAKKEVAHNVEKLILQPMQAQEELRYYLLNNGYEILEEVLVREDFRIYEIIVA", "protein production": "failed"}
{"sequence": "MKLTGQAIDGFLRKPDPKIRCVLVYGPDEGLVRERLEQLARTVVADPKDPFRITDLSGDDLRADPARLADEAAALAFGGGRRLVRLRQMTDQHAPRLKAFVEAPVGEALVLVQGGDLTARSALRKLFEGASAAAALPCYADEGRSLETLVRATLAEARLAAAPEVIDYLVANLGGDRGVSRSELAKLVTYCGKATSVSLDDALACVGDSAQIGLDMLTNAVAEGDSATALRALDRLGQEGMATVALLRGLTRHFTRLHLVAGLIAGGTSVDQALAALKPPVMFKLAPRFRSQVQRWSAERLAQALDLLLDAEIDAKSSGLPERALVERLLLRLARGAKTASRLEHHHHHH", "protein production": "failed"}
{"sequence": "MKLVFKWHDAPLSFMEGVFARGDRRLGAALRRAWELGCRFDGWGDRFDEAAWRTAFEETGIDPAFYHRRREPDEVLPWGHLDFGVTREFLLRELELSRQGAATEDLEHHHHHH", "protein production": "failed"}
{"sequence": "MKLVWSPETASKAYIDTVKSCENLETPDAAELIAAMAAGWNVKLIVETWSEGDAIASSIGLNVASKHANAKHICIVQNSRSESAYLQAIQESSSPLNFPETIVAEEPGKAMKKLQGVDFLVVDWRNKEFAAAALKNAAFGNRGAVVVCRNGYSSLRRVLRDRKVVRTVTLPVTGGIEIAHVAARNSGKSGNNKRRWITHVDQRSGEEHVFSI", "protein production": "failed"}
{"sequence": "MKLYIYDHCPFCVKARMIFGLKNIPVELNVLQNDDEATPTRMIGQKMVPILQKDDSRYLPESMDIVHYVDNLDGKPLLTGKRNPAIEEWLRKVNGYVNQLLLPRFAKSAFDEFSTPAARQYFIRKKEASSGSFDNHLAHSAGLIKKIGDDLRLLDKLIVQPNAVNGELSEDDIHLFPLLRNLTLVAGIHWPTKVADYRDNMAKQTQINLLSSMAI", "protein production": "not failed"}
{"sequence": "MKMLNRLDLGVPCLRAGFAGEQAFFLAMDGRLHVQQGDQRRVVALHDGDVLSACAAPGQADAAAWLLSAGEDGRVMRAGAGEPDCVASVPNKWVTALAVAADGALAYASGRTVWLAGGGGEAAALPQERPVQALRFSHGGRWLAVAGYDGLALYDRQAGGEPQRLDWKGMPTRVAFSPDDRFVLVATRDAVLHGWRLDTLRHFRMVGYPRAVGSWSWLAGGQWLATDGSAGAVLWPFEGEEGPIGSTPLALGERPDGEVSAVACHPARPWVAVGYADGLMVLESTDGALRRILGQAGRDRVACLAWDRAGARLAYGTPSGACGVIQADTGEEGLEHHHHHH", "protein production": "failed"}
{"sequence": "MKMNNTKEYSIRTPSLGNLPPGTTGTCCPPPLVFPLLPLSPPPSPPPSPSSPPRLPPPFPALFPPEPPLPPRFELPPPLFPPPPLPRLPPPLLPPPEEPPREPPPPPPPPEEPPPPASCLRTKSPENGIVSTVK", "protein production": "failed"}
{"sequence": "MKMYEVKEFSSGKRKLEDYKSIIGEEEVSKIQEKAEKLKGRSFVHVNSTSFGGGVAEILHSLVPLLRSIGIEARWFVIEGPTEFFNVTKTFHNALQGNESLKLTEEMKELYLNVNRENSKFIDLSSFDYVLVHDPQPAALIEFYEKKSPWLWRCHIDLSSPNREFWEFLRRFVEKYDRYIFHLPEYVQPELDRNKAVIMPPSIDPLSEKNVELKQTEILRILERFDVDPEKPIITQVSRFDPWKGIFDVIEIYRKVKEKIPGVQLLLVGVMAHDDPEGWIYFEKTLRKIGEDYDVKVLTNLIGVHAREVNAFQRASDVILQMSIREGFGLTVTEAMWKGKPVIGRAVGGIKFQIVDGETGFLVRDANEAVEKVLYLLKHPEVSKEMGAKAKERVRKNFIITKHMERYLDILNSLGGLEHHHHHH", "protein production": "not failed"}
{"sequence": "MKNELICYKQMPVWTKDNLPQMFQEKHNTKVGTWGKLTVLKGKLKFYELTENGDVIAEHIFTPESHIPFVEPQAWHRVEALSDDLECTLGFYCKKEDYFSKKYNTTAIHGDVVDAAKIISPCKVLDLGCGQGRNSLYLSLLGYDVTSWDHNENSIAFLNETKEKENLNISTALYDINAANIQENYDFIVSTVVFMFLNRERVPSIIKNMKEHTNVGGYNLIVAAMSTDDVPCPLPFSFTFAENELKEYYKDWEFLEYNENMGELHKTDENGNRIKMKFATMLARKK", "protein production": "not failed"}
{"sequence": "MKNIFLTMSLGIGLLFPCKLHAQSQYPFQNTTLSTEERVDDLIKRMTLEEKIDLLSGYNDFYLHPCERLGIPAFKLADGPLGVASWGLFGRATAFPSALSLAASWNKNLAEKTGAMYAQEWRARGIHFLLAPGVNNYRASKGARNFEYFGEDPYLASEMVVPFIKAVQDGGVIATIKHFAANDQEFDRYTVSTEVSERALQEIYLPPFKAAVQKAGVKAVMTGYNLVNGVYCTENKHLIDILKKDWGFKGMLMSDWACTYSAENAANYGLDLEMGSNDWFTRKELLPLVKEGKVTEEVINDKVRRIYGACISMGFFDRPQQDTDIPTFNPQANQMALNTACEGIILLKNEQNTLPIHRPKVIAVIGPTANPAIVSDRIYNVNSIVYGGGGSSKVHPWYVVSALEGIRQEFPEATVLYTEGISNQFKPRLFRNSKFRTKEGKPGLEANYYALSSDTSATLSDKMIQQQAVAAGRTVSVNQSADRTIETDKEESGLILRRTDRTVNYEWWGYPFNESKLGNDYRVCWEGYVDVEKTDSIRFFVDAQGAYRLWIDGTLALDASQSQSFDVRNTAISAKKGDAKHIRLEFCNQRSTPAEIRMGYAYQSDIDFSEAKRLAAKADLVVFCAGLDGSIELEGRDRPFDLPYGQDMLIQELVKVNPKLIVAIHAGGGINMTRWIDQVPAVVHALYPGQEGGHALAHILSGKVNPSAKLPFTIEKRWEDSPACGHYDETRKEKKVYYTEGIFTGYRGYDQKGIEPLFPFGFGLSYTTFDYSGLNIRMTDKKQKQLVVSFTVTNTGQRDGYEVAQLYVRDMQSKEPRPLKELKGFDKVYLKAGESKQIEIGLSEDAFQYFNAKQNRWVFEKGEFEILVGASSKDIRLAEKIKM", "protein production": "failed"}
{"sequence": "MKNITKLSTVALSLLLCTACAASNTSTSKTQSHHPKQTKLTDKQKEEPKNKEAADQEMHPQGAVDLTKYKAKPVKDYGKKIDVGDGKKMNIYETGQGKIPIVFIPGQAEISPRYAYKNLIERLSKKYKIYTVEPLGYGLSDIPTKPRTLENITKEIHTGLNKIGVKNFYLAAHSLGGMYSLNYAKNYPEEVRGFIGMDTSTPWMEGEQKTKYDPESAKWAMKLPDVDDKTNEQYLSIAKKINGNKSQRDEDERLGDNLGKLKNVKFPKGMPTKYFLADQSVEGIKLRQADFKGLKNWDQQHIDLSEDPKDASVEIFKGSHNIFQTQYEHMAKAIDGFIQSHQK", "protein production": "failed"}
{"sequence": "MKNKIKFATIIHPDVSFFNKQEVGEGTIIYPGLIVVGRFKLGKHVILKQKCSLGNNIEIGDYSFISFNSNIDSNVMVKEGSYIEANTTILANSNIDKNTYIKEGSILYLEHHHHHH", "protein production": "failed"}
{"sequence": "MKNKTIISKQNLVLIVIMVGATLTDQLSKIWITSNLQLGESIEIIPSFFKITYAQNTGAAWSILEGQMTFFYVITLVALILLGWYFYRLKDYQIIQKIGVALMVSGTLGNFIDRLLFQYVRDSLDFHILGYNFPIFNVADVLLICGVLFIIIDEVLKSFGVSYKKM", "protein production": "failed"}
{"sequence": "MKNLEKCILCGSHNIVPHWKNVRSYNVSKCLDCSFLFLHEIIDDHELENYYSQSYFMASYAKTENNLIDAANNPKITAEAKEYANLIKLHHPEAHNVGEIGCSWGYLLYNLQNFGYSAKGFELSKTTAEMGSKQLGINITSGFFETQYNQFDVLILRHVLEHVPDPQDLLEKIYDSIKKDGLFILEGPNLDSISSRLFGKNVSWVSPPDHISFPNFISLIMACEKLGFTCIHKSSRRGRGISIFHQALLNSVGLMFGGKEKAKVNLGGINEKPNNQQLSSLKSAALKIVDFLDFLSSPMQPFLKQALLEEEMLIIFKKLEHHHHHH", "protein production": "failed"}
{"sequence": "MKNLKIIWIYRLGLLLLVFLCLLVFLKIKPLWAPIIFVCKVAITPFLIACFIAYLLHPLIEKIHKEGMPRTLAILLIYILFFGGIGYGIYKGTPVVIKQLQEINEQFPQFTKMYDSWMDGVTEQTANFPSFIHEKVKQIFVGVETKIQALLNKVMSTARGVLDSLLIIFLIPFIVFYILKDYGEFYHIFWKLVPSKWRSTGQMLAKEIDKSLGSYIRGQLFVCLVLGGVSALSFWFIGMKYPLLLGIIIGVTDIIPYFGPILGAIPTLMIAATVSTSLLIKAGIAIAILQFVESNILSPYIVGKSLRMHPVIIMLALLVGGEVGGIVGLLISVPILAVIRTVIVHVRPLWKKEDMQ", "protein production": "failed"}
{"sequence": "MKNLKNKHFALLYLVLFLVLAKLSPFIITALIMGLYLSIIIDYVARFLEVFIKKPRVLPRVISNVLVFLTIAYSAVNFFPVIVREAQKVFSEIDRIRSGLENIDIPGWLSSILSSISASFSEGALSLVNKIVGYVPSFITAAILIVITAFIVSSLKRLIKENVHYLFPTNPSDGKEFLKTTYTEFERFVGGQVLVAIFVGLFVGFGAFIFKIPSAFFLGMLAFVTDFVPYLGVVISAIPLLMLAFSVHGLSGLLIGTIILVAANQLEMWVLAPKIQSNTLNVHWFIILIMILILGDLFSFGGVLIALPFLIFLKNFWKQYVMGG", "protein production": "failed"}
{"sequence": "MKNPIIDNIPCVLLAGGKSSRFITNNIQTNKALMPLKSYSSLLEYQYTRLLKLFKKVIISTKKSYELNAPYLLEKESDLFSPLFGIHNAFLTLQTPYIFFIPIDTPLVSFESIKALCGIKNFSVTYAKSPTKEHYLISLWHQNTLNALIYALKTQNYRLSDLVKNTSSVAINFDKEEEFLNLNTLKDYELAVQILKKRANG", "protein production": "failed"}
{"sequence": "MKNRAWLYVILTCIFEIFWVFGFNTANTWWHWIIILGVIAVDFHFLSKACEHLATGTVYAVFAGAGTVGTFLMDVFLFGGSFSVGKLFFIVMVVAGVIGLKLADNKEETVEGAA", "protein production": "failed"}
{"sequence": "MKNRYIILSILLFSVACRKFEPYPVFSKLALKKAFVDLGTHKLATFSVIRNSNYLVVFESGLGDDHTIWNSSNIALKAADTIDVVTYDRANRGQSGNGPVPRDVARLQSELGSVIDSFANGRKVVLIGHSLGGFMIRAWAVNNPTKVAGMLFIDPSHEKAGLDSAQNQQAEDYMYGKWSSYGTNFGAALESREWVEDNMYMATLGNLPDVPVIVLTAMKVDPPNKVEILKPWYDAHESLGTGVTDFTHVSIPNSGHMVMIDQPQILLNYIHVLLAKLH", "protein production": "failed"}
